One block for each binder: values may come before it.
Target: T1, CD276/B7-H3 (Homo sapiens (endogenous on DAOY …, UniProt Q5ZPR3))
T1 construct: CD276/B7-H3, transmembrane protein, endogenous on medulloblastoma patient-derived DAOY cells; source: endogenous, on GFP-expressing DAOY (HTB-186) medulloblastoma cells
Test: immunostaining of cells or tissue; inhibition assay on live GFP-expressing DAOY cells: CD276Ab at 0, 12.5, 25.0, 50.0 and 100 ug/mL for 1 h at 37 °C, washed, then DBCO-CD276Ab-Cy5 (30.0 ug/mL) for 1 h at 37 °C; Cy5 fluorescence within cells by confocal laser scanning microscopy
Settings: one partner purified

T1 sequence (Q5ZPR3 29-534): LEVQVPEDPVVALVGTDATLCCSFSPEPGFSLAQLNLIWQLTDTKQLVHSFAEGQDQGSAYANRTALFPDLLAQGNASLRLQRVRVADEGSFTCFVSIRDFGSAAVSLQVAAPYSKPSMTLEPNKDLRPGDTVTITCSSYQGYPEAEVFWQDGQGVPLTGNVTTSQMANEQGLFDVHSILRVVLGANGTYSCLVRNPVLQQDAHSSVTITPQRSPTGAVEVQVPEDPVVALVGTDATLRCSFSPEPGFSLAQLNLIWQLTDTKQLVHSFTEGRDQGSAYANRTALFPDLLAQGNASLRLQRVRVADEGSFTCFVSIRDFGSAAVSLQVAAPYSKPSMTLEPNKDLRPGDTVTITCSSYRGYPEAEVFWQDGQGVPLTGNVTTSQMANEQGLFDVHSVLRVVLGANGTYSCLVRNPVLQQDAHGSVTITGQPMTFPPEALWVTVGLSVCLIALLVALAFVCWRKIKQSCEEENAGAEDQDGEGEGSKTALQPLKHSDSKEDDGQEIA

binding result: binds
B1: Cy5-labeled DBCO-CD276Ab (DBCO-CD276Ab-Cy5) (antibody, V domains shown)
VH: QVQLQQSGAELVKPGASVKLSCKASGYTFTNYDINWVRQRPEQGLEWIGWIFPGDGSTQYNEKFKGKATLTTDTSSSTAYMQLSRLTSEDSAVYFCARQTTATWFAYWGQGTLVTVSA
VL: DIVMTQSPATLSVTPGDRVSLSCRASQSISDYLHWYQQKSHESPRLLIKYASQSISGIPSRFSGSGSGSDFTLSINSVEPEDVGVYYCQNGHSFPLTFGAGTKLELK
notes: as in m1: constant region of the IgG heavy chain as far as it is not in PDB 5CMA; m1 chemically modified: DBCO-PEG4-NHS fed at 0.25 eq. to primary amines, then Cy5-NHS ester; also called the fabricated antibody; source: CD276Ab from Expi CHO cells, conjugated with DBCO-PEG4-NHS and Cy5-NHS ester, purified (Protein G HP SpinTrap)

binding result: binds
B2: anti-CD276 antibody (CD276Ab), 8H9 antibody, IgG (antibody, V domains shown)
VH: B1 VH
VL: B1 VL
notes: heavy chain of 8H9; constant region of the IgG heavy chain as far as it is not in PDB 5CMA; light chain of 8H9; IgG; the fabrication scheme is said to be in the Supplementary Materials; also called 'as prepared' CD276Ab; source: Expi CHO cells, co-transfected with heavy and light chain vectors, purified from supernatant (rProtein A Sepharose, SEC)
